The experiment has as its target T1, PD-L1 protein (human, UniProt Q9NZQ7 19-238, limits assumed).
T1 construct: Plate-coated recombinant protein; also called human PD-L1 protein
Description: ELISA: PD-L1 coated at 2 ug/ml, FITC-labelled PPLC titrated, HRP anti-FITC detection, OD 410 nm. As to the method:
A 96-well ELISA plate was coated with 2μg/ml PD-L1 protein at 4° C. overnight. […] After incubation, HRP-conjugated anti-FITC antibody was added, incubated for 1 h, and then ABTS coloring solution was added. The OD value at 410 nm was measured using a M5 microplate reader, and GraphPad Prism 6 was used for plotting and analysis.
(ELISA stands for enzyme-linked immunosorbent assay.)

Where no end group is shown, it is not given here.

T1 sequence (Q9NZQ7 19-238 limits assumed): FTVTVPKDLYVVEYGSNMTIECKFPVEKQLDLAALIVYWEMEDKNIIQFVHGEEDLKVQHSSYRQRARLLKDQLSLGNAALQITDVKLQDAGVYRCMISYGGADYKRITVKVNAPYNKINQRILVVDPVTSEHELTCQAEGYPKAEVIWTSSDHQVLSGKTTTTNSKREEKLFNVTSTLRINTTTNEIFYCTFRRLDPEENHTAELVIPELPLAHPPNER

B1: PPLC peptide labeled with FITC (peptide)
peptide: VSVSHFQKVWVV
modifications: also: FITC label, attachment not given here
notes: Chemically synthesized peptide; The FITC-labelled form was used in the direct ELISA, flow cytometry and confocal assays; also called FITC-labeled PPLC
Usually Kd stands for a measure of binding affinity in units of concentration. B1 showed a Kd of 750 nM.
